From patent US20130324704A1 (published 2013)
Where a chain is given by its changes, count along the chain named. One block for each binder: values may come before it.

Tests used:
[1] = target: T1, Mouse EGFL7 (mEGFL7-CB-His) (mouse, UniProt Q9QXT5 22-275); test: SPR (Biacore) at 37 C, IgG over immobilized mEGFL7-CB
T1 construct: Limits of the construct and the CB(-His) tag are not described; also called murine EGFL7
T1 sequence: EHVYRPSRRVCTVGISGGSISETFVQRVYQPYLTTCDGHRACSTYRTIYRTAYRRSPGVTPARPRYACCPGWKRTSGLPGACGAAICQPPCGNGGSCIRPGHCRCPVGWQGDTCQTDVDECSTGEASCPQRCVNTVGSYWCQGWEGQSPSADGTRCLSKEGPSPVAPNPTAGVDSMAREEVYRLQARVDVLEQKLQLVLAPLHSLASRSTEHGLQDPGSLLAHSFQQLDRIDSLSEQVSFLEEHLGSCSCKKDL

[2] = target: EGFL7 coated on plates in the Cell Adhesion Assay (mouse EGFL7 (mEGFL7-CB-His) or human EGFL7 (EGFL7-CB-His)); …; test: cell-based or functional assay

Kd [1]: 6.8 nM
B1: hu18F7.v6J, IgG (antibody, V domains shown)
VH: EVQLVESGGGLVQPGGSLRLSCAASGYTFIDYYMNWVRQAPGKGLEWVGDINLDNSGTHYNQKFKGRFTISRDKSKNTAYLQMNSLRAEDTAVYYCAREGVYHDYDDYAMDYWGQGTLVTVSS
VL: DIQMTQSPSSLSASVGDRVTITCRTSQSLVHINSITYLHWYQQKPGKAPKLLIYRVSNRFSGVPSRFSGSGSGTDFTLTISSLQPEDFATYYCGQSTHVPLTFGQGTKVEIK
notes: Variant of 18F7.v6; Expressed as IgG

Cell Adhesion Assay Variant/ch4F11 (fold) [2]: 4.01 fold
B2: 4F11.v6, IgG (antibody, V domains shown)
VH: EVQLVESGGGLVQPGGSLRLSCAASGHTFTTYGMSWVRQAPGKGLEWVGWINTHSGVPTYADDFKGRFTISRDNSKNTVYLQMNSLRAEDTAVYYCARLGSSAVDYWGQGTLVTVSS
VL: DIQMTQSPSSLSASVGDRVTITCKASQSVDYDGDSYMSWYQQKPGKAPKLLIYGASYLESGVPSRFSGSGSGTDFTLTISSLQPEDFATYYCQQNNEDPYTFGQGTKVEIK

Cell Adhesion Assay Variant/ch4F11 (fold) [2]: 4.38 fold
B3: 4F11.v10, IgG (antibody, V domains shown)
VH: B2 VH with S102Y
VL: B2 VL
